Results reported in US20150017230A1 (ACADEMIA SINICA, published 2015).
Positions count from the first letter of the chain named. Values belong to the binder of their own block, whether it stands above or below them.

Assays:
[1] = target: T1, EpCAM antigen immobilized on CM5 sensor chip (human, UniProt P16422 24-265, limits assumed); assay: SPR (BIAcore), EpCAM antigen immobilized on CM5 chip, mAb injected
T1 sequence: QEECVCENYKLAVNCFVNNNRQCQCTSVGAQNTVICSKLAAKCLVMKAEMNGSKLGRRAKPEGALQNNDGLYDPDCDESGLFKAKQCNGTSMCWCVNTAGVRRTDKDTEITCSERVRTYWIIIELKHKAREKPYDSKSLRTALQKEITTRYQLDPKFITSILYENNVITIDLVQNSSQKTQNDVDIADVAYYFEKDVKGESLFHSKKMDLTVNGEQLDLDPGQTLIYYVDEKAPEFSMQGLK
Procedure: (§1) The affinity of murine and humanized antibodies was performed by surface plasmon resonance (BIAcore T100, Biacore, Inc). EpCAM antigen was immobilized on a Series S Sensor Chip CM5 (Biacore, Inc) and injected at a flow rate of 10 μl/min. The mAbs were diluted in HBS-EP⁺ buffer (Biacore, Inc) and injected at a flow rate of 50 μl/min for 1.5 min, and were allowed to dissociate over 5 min. […] The data were analyzed by the BIAevaluation software with a global fit 1:1 binding model.

[2] = target: T2, human epithelial cell adhesion molecule (EpCAM), endogenous in SAS and other cancer cells (human, UniProt P16422 24-314); assay: cellular ELISA on SAS cells, OD490nm
T2 construct: also called TACSTD1; epithelial specific antigen (ESA)
T2 sequence: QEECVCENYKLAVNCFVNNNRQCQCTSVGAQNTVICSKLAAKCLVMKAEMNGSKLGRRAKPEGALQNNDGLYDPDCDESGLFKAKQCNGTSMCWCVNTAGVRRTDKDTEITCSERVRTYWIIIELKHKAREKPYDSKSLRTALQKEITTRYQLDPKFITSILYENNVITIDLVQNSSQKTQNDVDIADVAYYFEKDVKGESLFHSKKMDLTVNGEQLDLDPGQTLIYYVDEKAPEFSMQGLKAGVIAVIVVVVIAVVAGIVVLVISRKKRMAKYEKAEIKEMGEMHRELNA

[3] = target: T1, EpCAM antigen immobilized on CM5 sensor …; assay: SPR (BIAcore T100), EpCAM antigen immobilized on CM5 chip, mAb injected, 1:1 global fit
Procedure: as §1

Kd [1]: 1.23 pM
koff [1]: 3.52e-07 s⁻¹
kon [1]: 286000 M⁻¹ s⁻¹
B1: EpAb4-1 (antibody, V domains shown)
VH: QIQLVQSGPELKKPGETVKISCKASGYTFTNYGMNWVKQAPGKGLKWMGWINTYTGEPTYGDDFKGRFAFSLETSASTAYLQINNLKNEDTATYFCARFGRSVDFWGQGTSVTVSS
VL: DIVMTQAAFSNPVTLGTSASISCRSSKSLLHSNGITYLYWYLQKPGQSPQLLIYHMSNLASGVPDRFSSSGSGTDFTLRISRVEAEDVGIYYCAQNLENPRTFGGGTKLEIK

EC50 (read off the curve) [2]: ~0.01 µg/mL
koff [1]: 0.00014 s⁻¹
kon [1]: 401000 M⁻¹ s⁻¹
Kd [3]: 0.349 nM
B2: EpAb2-6 (antibody, V domains shown)
VH: EVQLVESGPELKKPGETVKISCKASGYTFTDYSMHWVKQAPGKGLKWMGWINTETGEPTFADDFKGRFAFSLETSARTTYLQINNLKNEDTATYFCARTAVYWGQGTSLTVSS
VL: DIQLTQSPSSLSASLGERVSLTCRASQEISVSLSWLQQKPDGTIKRLIYATSTLDSGVPKRFSGSRSGSDYSLTISSLESEDFADYYCLQYASYPWTFGGGTKLEIKR
notes: Mouse hybridoma monoclonal IgG; also called mEpAb2-6; murine EpAb2-6

EC50 (read off the curve) [2]: ~0.02 µg/mL
koff [1]: 0.000254 s⁻¹
kon [1]: 376000 M⁻¹ s⁻¹
Kd [3]: 0.677 nM
B3: humanized EpAb2-6 (antibody, V domains shown)
VH: VKLQESGPELKKPGETVKISCKASGYTFTDYSMHWVKQAPGKGLKWMGWINTETGEPTYADDFKGRFAFSLETSASTAYLQINNLKNEDTATYFCARTAVYWGQGTTVTVSS
VL: B2 VL with L4M, K39E, A84V
notes: CDRs of EpAb2-6 grafted onto a human IgG1 backbone; also called hEpAb2-6
